From paper doi:10.1101/2022.10.05.510932 (bioRxiv, 2022) come the findings set out here.

Series [1] concerns the molecule itself. Put plainly: crystal structure.
Series [2] deals with the molecule itself. Put plainly: cryo-EM structure.

B1: truncated KpFtsZ (residues 11-316) (domain or fragment, Klebsiella pneumoniae, UniProt W9BCK7 11-316, looked up)
chain: AVIKVIGVGGGGGNAVEHMVRERIEGVEFFAVNTDAQALRKTAVGQTIQIGSGITKGLGAGANPEVGRNAADEDREALRAALDGADMVFIAAGMGGGTGTGAAPVVAEVAKDLGILTVAVVTKPFNFEGKKRMAFAEQGITELSKHVDSLITIPNDKLLKVLGRGISLLDAFGAANDVLKGAVQGIAELITRPGLMNVDFADVRTVMSEMGYAMMGSGVASGEDRAEEAAEMAISSPLLEDIDLSGARGVLVNITAGFDLRLDEFETVGNTIRAFASDNATVVIGTSLDPDMNDELRVTVVATGIG
As for B1, the binding result in series [1] is “binds”.

B2: FtsZ from Klebsiella pneumoniae, full length, tag removed (natural protein, UniProt W9BCK7 1-383, looked up)
chain: MFEPMELTNDAVIKVIGVGGGGGNAVEHMVRERIEGVEFFAVNTDAQALRKTAVGQTIQIGSGITKGLGAGANPEVGRNAADEDREALRAALDGADMVFIAAGMGGGTGTGAAPVVAEVAKDLGILTVAVVTKPFNFEGKKRMAFAEQGITELSKHVDSLITIPNDKLLKVLGRGISLLDAFGAANDVLKGAVQGIAELITRPGLMNVDFADVRTVMSEMGYAMMGSGVASGEDRAEEAAEMAISSPLLEDIDLSGARGVLVNITAGFDLRLDEFETVGNTIRAFASDNATVVIGTSLDPDMNDELRVTVVATGIGMDKRPEITLVTNKQVQQPVMDRYQQHGMSPLTQEQKPAAKVVNDNTPQTAKEPDYLDIPAFLRKQAD
With B2, the binding result in series [2] is reported as “binds”.
